Results published in US20230272067A1 (HUAHUI HEALTH, published 2023).
Residue numbers refer to the chain shown, from its start. In names and notes the source's numbering stands.

Tests used:
[1] = target: T1, extracellular domain (ECD) of mouse TIGIT (mouse, UniProt P86176 29-148, biotinylated (site not stated)); assay: SPR (Biacore T200), multi-cycle kinetics
T1 construct: extracellular domain; Used captured on streptavidin in ELISA and as analyte in SPR (extracellular domain); also called mTIGIT-ECD; mTIGIT-ECD-Biotin; not shown: expressed as a biotinylated recombinant fusion protein
T1 sequence (looked up): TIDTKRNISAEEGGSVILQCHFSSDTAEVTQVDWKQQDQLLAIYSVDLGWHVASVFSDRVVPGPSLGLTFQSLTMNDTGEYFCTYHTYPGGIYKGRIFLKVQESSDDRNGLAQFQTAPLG

[2] = target: T2, extracellular domain (ECD) of human TIGIT (human, UniProt Q495A1 22-141, biotinylated (site not stated)); assay: SPR (Biacore T200), multi-cycle kinetics
T2 construct: extracellular domain; Used captured on streptavidin in ELISA and as analyte in SPR (extracellular domain); also called hTIGIT-ECD; hTIGIT-ECD-Biotin; not shown: expressed as a biotinylated recombinant fusion protein
T2 sequence (looked up): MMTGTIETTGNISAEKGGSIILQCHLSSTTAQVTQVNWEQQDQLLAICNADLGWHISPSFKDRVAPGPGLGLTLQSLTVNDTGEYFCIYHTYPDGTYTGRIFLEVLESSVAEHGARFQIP

[3] = target: T1, extracellular domain (ECD) of mouse …; assay: SPR (Biacore T200), multi-cycle kinetics, FIG. 11 (hTIGIT or mTIGIT)
[4] = target: T2, extracellular domain (ECD) of human …; assay: as above
[5] = target: T3, full-length human TIGIT expressed on cells (human, UniProt Q495A1 22-244); assay: FACS on CHO cells transiently expressing full-length hTIGIT, hIgG1 format
T3 construct: whole, on cells; also called CHO-hTIGIT; YTS-hTIGIT
T3 sequence (looked up): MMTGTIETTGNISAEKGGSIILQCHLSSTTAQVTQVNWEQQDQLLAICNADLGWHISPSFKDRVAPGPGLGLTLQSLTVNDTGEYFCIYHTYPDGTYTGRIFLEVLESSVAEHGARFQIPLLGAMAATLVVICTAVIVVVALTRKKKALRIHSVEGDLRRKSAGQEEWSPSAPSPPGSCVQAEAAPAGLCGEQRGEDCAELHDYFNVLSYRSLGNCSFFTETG
Method: (§1) For epitope mapping, chimeras of human TIGIT IgV domain and N-terminal IgV domain D1 of hCD155 were constructed by replacing residues in the extracellular regions of hTIGIT with the corresponding residues from hCD155 D 1. These chimera and variants were expressed by transient transfection of CHO or 293T cells, their cell surface expression levels were assessed by using a mAb GC33 recognizing the N-terminal tag fused to each of the chimera and variant or hCD155-hFc (4). The binding of testing Abs in human IgG1 (hIgG1) format or hCD155-hFc to these transfectants were detected by using goat anti-human IgG-FITC antibody (Thermo Fisher Scientific). The cells were then analyzed with FACS machine (BD Accuri™ C6).
By transfecting CHO cells with these hTIGIT/hCD155 chimeras or hTIGIT variants, and by subsequently analyzing T4, CS19ME3-23, and CS19ME3-30-N Abs binding to these CHO transfectant cells by FACS, it was identified that the FG Loop in the extracellular IgV domain of hTIGIT is critical for these Abs′ binding (FIG. 12B). […] Thus, by binding to the FG Loop, these three Abs block the binding of TIGIT to its ligand CD155. Due to the high amino acid sequence homology in this loop between hTIGIT and mTIGIT, these three Abs are able to cross-react with both of them.

[6] = target: T4, hTIGIT variant K82A (full length, on 293T cells) (human, UniProt Q495A1 22-244); assay: FACS on 293T cells transiently expressing the variant
T4 construct: whole, on cells
T4 sequence (looked up): T3 sequence (looked up) with K61A
Method: as §1
(§2) To investigate the role of these residues in the binding of anti-TIGIT antibodies of the present disclosure to hTIGIT, three hTIGIT variants each having a single point mutation selected from S78A, […], and K82A were generated. By transfecting 293T cells with these hTIGIT variants and by subsequently analyzing CS19ME3-30-N Abs binding to these 293T transfectant cells by FACS, it was identified that none of the three residues in the extracellular IgV domain of hTIGIT is critical for these Abs′ binding (FIG. 12C).

[7] = target: T5, hTIGIT variant S78A (full length, on 293T cells) (human, UniProt Q495A1 22-244); assay: as above
T5 construct: whole, on cells
T5 sequence (looked up): T3 sequence (looked up) with S57A
Method: as §1, §2

[8] = target: T6, hTIGIT variant S80A (full length, on 293T cells) (human, UniProt Q495A1 22-244); assay: as above
T6 construct: whole, on cells; also called 580A [sic]
T6 sequence (looked up): T3 sequence (looked up) with S59A
Method: as §1, §2

Measured: binding result

B1: T4M (antibody, V domains shown)
VH: QVQLQQWGAGLLKPSETLSLTCAVYGGSFNDYYWTWIRQAPGKGLEWIGEITHSGSADYNPSLKSRVTISVDTSKNQFSLKLRSVTAADTAVYYCARGLKLFRWKKTTVTTFPPYYYGMDVWGQGTTVTVSS
VL: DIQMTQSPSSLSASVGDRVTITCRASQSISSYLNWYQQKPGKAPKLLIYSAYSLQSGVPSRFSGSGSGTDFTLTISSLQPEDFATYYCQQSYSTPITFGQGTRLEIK
notes: T4 Vk with S50 and Y52 incorporated; IgG format captured by anti-hFc in SPR; also called T4M Ab
binds: [1] | [2]

B2: CS19ME3-23 (antibody, human IgG1, V domains shown)
VH: EVQLLESGGGLVQPGGSLRLSCAASGFTFSSYAMHWVRQAPGKGLEWVAVISYDGSNKYYADSVKGRFTISRDNSKNTLYLQMNSLRAEDTAVYYCATLEGGGRYYDFWSADYWGQGTLVTVSS
VL: QSALTQPRSVSGSPGQSVTISCTGTSSDVGGYNFVSWYQQHPGKAPKLLIYAVSKRPSGVPDRFSGSKSGNTASLTISGLQAEDEADYYCSSYSSESTRVVFGGGTKLTVL
notes: tested as human IgG1 (hIgG1); also called CS19ME3-23 Ab
binds: [3] | [4] | [5]

B3: CS19ME3-30-N (antibody, human IgG1, V domains shown)
VH: B2 VH with E1Q, L5V, L11V, G16R
VL: B2 VL with K55N
notes: tested as human IgG1 (hIgG1); also called CS19ME3-30-N Ab
not listed: [1] | [2]
binds: all other assays above
